Experimental data taken from patent US20260132192A1 (XBIOTECH, published 2026).

Target: T1, recombinant human IL-1α (human, UniProt P01583 113-271)
T1 sequence (looked up): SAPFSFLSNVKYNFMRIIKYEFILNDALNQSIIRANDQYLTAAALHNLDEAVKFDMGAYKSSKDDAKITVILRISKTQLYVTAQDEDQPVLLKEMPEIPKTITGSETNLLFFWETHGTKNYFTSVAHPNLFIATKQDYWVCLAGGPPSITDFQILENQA
Assay: cell-based or functional assay

B1: human monoclonal antibody designated XIA12 (antibody, V domains shown)
VH: QVQLVQSGAEVKKPGSSVKVSCKASGGRFTNYAILWVRQAPGQGLQWLGGIIPIFDETDHAQDFQDRLTITVDESMTTAYMELSSLRPEDTAIYYCATGSNSYYGLYWGQGTLVTVSS
VL: DIVMTQSPDFLAVSLGERATINCKSSQSVLYSSDNKNYLAWYQQKAGQPPKLLIYWASTRESGVPDRFSGSGSATDFTLTISSLQAEDVAVYYCQQYYSLPITFGQGTRLEIKR
  HUVEC-based potency assay; ICAM-1 expression by flow cytometry after hIL-1α stimulation; IC50: 0.0187 µg/mL
